In patent publication US20190382490A1:
pKd: −log10 of the molar value.

Tests used:
Experiment in all cases: Fc receptor binding, method not stated
[1] = molecular target: CD16-V158 (FcγRIIIa) (human) (UniProt P08637)
[2] = molecular target: CD32-H131 (FcγRIIa) (human) (UniProt P12318)
[3] = molecular target: CD64 (FcγRIa) (human) (UniProt P12314)
[4] = molecular target: CD32-R131 (FcγRIIa) (human) (UniProt P12318)

UniProt P12314, sequence (P12314 16-288 limits assumed): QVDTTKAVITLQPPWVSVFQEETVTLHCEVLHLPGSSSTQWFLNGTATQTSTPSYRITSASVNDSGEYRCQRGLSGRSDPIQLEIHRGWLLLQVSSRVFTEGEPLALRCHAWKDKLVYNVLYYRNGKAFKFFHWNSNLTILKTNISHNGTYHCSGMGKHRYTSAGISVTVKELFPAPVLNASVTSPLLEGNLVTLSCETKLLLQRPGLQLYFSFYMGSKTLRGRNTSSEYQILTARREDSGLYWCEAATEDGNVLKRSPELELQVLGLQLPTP
UniProt P08637, sequence (P08637 17-208 F176V limits assumed): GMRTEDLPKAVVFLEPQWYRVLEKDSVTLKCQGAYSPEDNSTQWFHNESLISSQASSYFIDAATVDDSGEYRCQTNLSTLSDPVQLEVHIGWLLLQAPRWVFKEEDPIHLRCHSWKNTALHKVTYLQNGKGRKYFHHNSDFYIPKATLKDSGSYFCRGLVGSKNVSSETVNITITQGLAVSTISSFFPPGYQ

IgG1f antibody (fucosylated, otherwise unmodified human IgG1f Fc region)
pKd [1]: 7.01 | pKd [2]: 6.28 | pKd [3]: 9.70 | pKd [4]: 6.02
